According to PMC7804408, “Functional cooperativity between the trigger factor chaperone and the ClpXP proteolytic complex” (Nature Communications, 2021):

B1: ClpX (enzyme)
chain: not shown
notes: E. coli ClpX unfoldase (N-terminal ZBD and C-terminal AAA+ domain); expressed from pProEXHTb ClpX; the SPR running buffer held EDTA and no nucleotide, and the oligomeric state in that assay was not measured; also called WT ClpX; full-length ClpX; source: E. coli BL21(DE3), purified the same way as TF (Ni-NTA; His-tag removed with TEV protease)
B2: λ phage replication protein λO (natural protein, UniProt P03688 1-333, looked up)
chain: MTNTAKILNFGRGNFAGQERNVADLDDGYARLSNMLLEAYSGADLTKRQFKVLLAILRKTYGWNKPMDRITDSQLSEITKLPVKRCNEAKLELVRMNIIKQQGGMFGPNKNISEWCIPQNEGKSPKTRDKTSLKLGDCYPSKQGDTKDTITKEKRKDYSSENSGESSDQPENDLSVVKPDAAIQSGSKWGTAEDLTAAEWMFDMVKTIAPSARKPNFAGWANDIRLMRERDGRNHRDMCVLFRWACQDNFWSGNVLSPAKLRDKWTQLEINRNKQQAGVTASKPKLDLTNTDWIYGVDLKTSPHRWLTLTVSRCVGSPTTCRNSTTKSRRYSR
notes: replication protein O of phage λ
B3: zinc-binding domain (ZBD) of ClpX (domain or fragment, E. coli)
chain: TDKRKDGSGKLLYCSFCGKSQHEVRKLIAGPSVYICDECVDLCNDIIREEIKEVAPHRER
notes: Tag removal rests on the words 'purified by the same procedure as TFN'; Isotopically labelled in one NMR experiment; also called ClpX ZBD; ZBD dimer; source: E. coli BL21(DE3), purified (Ni Sepharose, gel filtration; same procedure as TFN; 100 μM ZnCl2 added before size exclusion)
B4: trigger factor (TF) (natural protein, E. coli, UniProt P0A850 1-432, looked up)
chain: MQVSVETTQGLGRRVTITIAADSIETAVKSELVNVAKKVRIDGFRKGKVPMNIVAQRYGASVRQDVLGDLMSRNFIDAIIKEKINPAGAPTYVPGEYKLGEDFTYSVEFEVYPEVELQGLEAIEVEKPIVEVTDADVDGMLDTLRKQQATWKEKDGAVEAEDRVTIDFTGSVDGEEFEGGKASDFVLAMGQGRMIPGFEDGIKGHKAGEEFTIDVTFPEEYHAENLKGKAAKFAINLKKVEERELPELTAEFIKRFGVEDGSVEGLRAEVRKNMERELKSAIRNRVKSQAIEGLVKANDIDVPAALIDSEIDVLRRQAAQRFGGNEKQALELPRELFEEQAKRRVVVGLLLGEVIRTNELKADEERVKGLIEEMASAYEDPKEVIEFYSKNKELMDNMRNVALEEQAVEAVLAKAKVTEKETTFNELMNQQA

Experiments:
[1] = target: B4; experiment: SPR; TF immobilised on a CM5 chip by amine coupling, analytes injected at 20 μL/min for 90 s; Biacore X, 22 °C; 10 mM HEPES pH 7.5, 150 mM NaCl, 3 mM EDTA, 0.005% P20; steady-state response against concentration, one-site Langmuir model; apparent Kd for ClpX; conditions: both partners purified
[2] = target: HV-ClpX (N-terminally tagged ClpX) (E. coli, UniProt P0A6H1 1-424); experiment: cell-based or functional assay
Chain of HV-ClpX (N-terminally tagged ClpX) (P0A6H1 whole entry): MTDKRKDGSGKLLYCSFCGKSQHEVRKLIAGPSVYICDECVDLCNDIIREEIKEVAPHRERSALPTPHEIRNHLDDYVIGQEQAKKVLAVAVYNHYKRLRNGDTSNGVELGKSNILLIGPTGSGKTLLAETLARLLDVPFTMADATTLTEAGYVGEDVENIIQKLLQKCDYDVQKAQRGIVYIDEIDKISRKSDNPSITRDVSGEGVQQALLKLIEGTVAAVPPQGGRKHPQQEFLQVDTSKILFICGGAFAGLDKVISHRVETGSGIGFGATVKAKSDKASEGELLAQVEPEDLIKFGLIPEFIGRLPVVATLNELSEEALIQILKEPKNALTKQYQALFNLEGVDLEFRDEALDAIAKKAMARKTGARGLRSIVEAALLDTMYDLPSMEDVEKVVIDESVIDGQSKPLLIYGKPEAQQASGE

Binder: B1
- Kd [1]: 9.3 µM

Binder: B2
- Kd [1]: 3.8 µM

Binder: B3
- Kd [1]: 12.8 µM

Binder: B4
- clipping of HV-ClpX by bound ClpP with ATP, rate of disappearance of HV-ClpX with and without TF (Fig. 3b) [2]: > 2 fold
